Assay results taken from PMC10397247.
Each block holds one binder with its values, some of them ahead of it.

Tests used:
Assay in all cases: two-hybrid library CCNG1;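 further: natural log of median RNA to DNA barcode read ratio; higher means stronger binding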
O14-bA = biological target: T1, O14-bA
T1 chain: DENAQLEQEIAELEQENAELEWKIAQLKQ

O7-bA = biological target: T2, O7-bA
T2 chain: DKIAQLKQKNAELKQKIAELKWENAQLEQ

O2-bA = biological target: T3, O2-bA
T3 chain: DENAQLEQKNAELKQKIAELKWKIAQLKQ

O16-bA = biological target: T4, O16-bA
T4 chain: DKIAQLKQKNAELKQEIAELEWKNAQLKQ

O6-bA = biological target: T5, O6-bA
T5 chain: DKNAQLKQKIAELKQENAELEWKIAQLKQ

O15-bA = biological target: T6, O15-bA
T6 chain: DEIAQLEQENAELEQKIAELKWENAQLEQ

O9-bA = biological target: T7, O9-bA
T7 chain: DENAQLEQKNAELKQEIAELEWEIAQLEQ

O5-bA = biological target: T8, O5-bA
T8 chain: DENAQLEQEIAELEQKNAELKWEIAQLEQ

O12-bA = biological target: T9, O12-bA
T9 chain: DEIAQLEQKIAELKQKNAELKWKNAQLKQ

O8-bA = biological target: T10, O8-bA
T10 chain: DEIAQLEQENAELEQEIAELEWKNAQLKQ

O13-bA = biological target: T11, O13-bA
T11 chain: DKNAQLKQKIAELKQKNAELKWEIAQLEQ

O11-bA = biological target: T12, O11-bA
T12 chain: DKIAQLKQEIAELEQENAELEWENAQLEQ

O4-bA = biological target: T13, O4-bA
T13 chain: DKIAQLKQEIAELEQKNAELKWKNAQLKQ

O3-bA = biological target: T14, O3-bA
T14 chain: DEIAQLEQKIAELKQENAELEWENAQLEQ

4H492-bN = biological target: T15, 4H492-bN
T15 chain: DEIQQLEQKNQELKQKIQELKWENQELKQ

4H730-bN = biological target: T16, 4H730-bN
T16 chain: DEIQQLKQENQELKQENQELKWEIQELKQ

4H2143-bN = biological target: T17, 4H2143-bN
T17 chain: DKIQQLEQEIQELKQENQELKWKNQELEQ

4H319-bN = biological target: T18, 4H319-bN
T18 chain: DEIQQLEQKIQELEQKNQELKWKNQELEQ

4H235-bN = biological target: T19, 4H235-bN
T19 chain: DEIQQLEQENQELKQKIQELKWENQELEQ

4H3364-bN = biological target: T20, 4H3364-bN
T20 chain: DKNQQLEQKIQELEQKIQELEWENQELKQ

4H2253-bN = biological target: T21, 4H2253-bN
T21 chain: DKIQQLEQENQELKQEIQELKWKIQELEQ

4H3041-bN = biological target: T22, 4H3041-bN
T22 chain: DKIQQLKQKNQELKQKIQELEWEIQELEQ

4H349-bN = biological target: T23, 4H349-bN
T23 chain: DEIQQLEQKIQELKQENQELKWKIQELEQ

O11-bN = biological target: T24, O11-bN
T24 chain: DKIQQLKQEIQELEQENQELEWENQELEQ

4H56-bN = biological target: T25, 4H56-bN
T25 chain: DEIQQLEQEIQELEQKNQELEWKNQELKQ

4H348-bN = biological target: T26, 4H348-bN
T26 chain: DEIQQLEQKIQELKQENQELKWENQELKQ

4H2915-bN = biological target: T27, 4H2915-bN
T27 chain: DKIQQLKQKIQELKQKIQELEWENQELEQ

4H754-bA = biological target: T28, 4H754-bA
T28 chain: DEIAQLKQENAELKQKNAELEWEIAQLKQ

4H3297-bN = biological target: T29, 4H3297-bN
T29 chain: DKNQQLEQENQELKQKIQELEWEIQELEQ

4H932-bN = biological target: T30, 4H932-bN
T30 chain: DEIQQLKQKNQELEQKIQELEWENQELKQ

4H2692-bN = biological target: T31, 4H2692-bN
T31 chain: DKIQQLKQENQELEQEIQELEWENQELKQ

4H2931-bN = biological target: T32, 4H2931-bN
T32 chain: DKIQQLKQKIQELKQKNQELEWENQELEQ

4H477-bN = biological target: T33, 4H477-bN
T33 chain: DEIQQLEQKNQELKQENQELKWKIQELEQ

4H3354-bN = biological target: T34, 4H3354-bN
T34 chain: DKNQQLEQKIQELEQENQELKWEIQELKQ

4H949-bN = biological target: T35, 4H949-bN
T35 chain: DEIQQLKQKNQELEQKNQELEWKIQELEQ

4H2444-bN = biological target: T36, 4H2444-bN
T36 chain: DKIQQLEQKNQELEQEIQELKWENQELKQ

4H2503-bN = biological target: T37, 4H2503-bN
T37 chain: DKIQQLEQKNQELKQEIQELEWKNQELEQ

4H2233-bN = biological target: T38, 4H2233-bN
T38 chain: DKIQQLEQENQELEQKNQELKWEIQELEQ

4H570-bN = biological target: T39, 4H570-bN
T39 chain: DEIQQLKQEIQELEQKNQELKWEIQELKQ

4H2473-bN = biological target: T40, 4H2473-bN
T40 chain: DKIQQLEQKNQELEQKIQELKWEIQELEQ

4H2588-bN = biological target: T41, 4H2588-bN
T41 chain: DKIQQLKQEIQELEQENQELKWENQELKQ

4H741-bN = biological target: T42, 4H741-bN
T42 chain: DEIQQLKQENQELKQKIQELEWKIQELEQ

4H40-bN = biological target: T43, 4H40-bN
T43 chain: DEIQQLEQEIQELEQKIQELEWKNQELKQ

4H2839-bN = biological target: T44, 4H2839-bN
T44 chain: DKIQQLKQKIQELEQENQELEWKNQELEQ

4H2438-bN = biological target: T45, 4H2438-bN
T45 chain: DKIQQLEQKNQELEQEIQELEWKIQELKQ

4H3277-bN = biological target: T46, 4H3277-bN
T46 chain: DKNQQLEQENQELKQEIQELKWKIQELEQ

4H2223-bN = biological target: T47, 4H2223-bN
T47 chain: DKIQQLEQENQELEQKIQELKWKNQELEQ

4H2585-bN = biological target: T48, 4H2585-bN
T48 chain: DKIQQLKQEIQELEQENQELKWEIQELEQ

4H264-bN = biological target: T49, 4H264-bN
T49 chain: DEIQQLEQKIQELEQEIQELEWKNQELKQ

4H3381-bN = biological target: T50, 4H3381-bN
T50 chain: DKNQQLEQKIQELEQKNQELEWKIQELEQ

4H2760-bN = biological target: T51, 4H2760-bN
T51 chain: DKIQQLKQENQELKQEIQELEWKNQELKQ

4H796-bN = biological target: T52, 4H796-bN
T52 chain: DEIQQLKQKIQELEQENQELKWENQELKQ

4H3057-bN = biological target: T53, 4H3057-bN
T53 chain: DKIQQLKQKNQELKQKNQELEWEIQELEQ

4H2859-bN = biological target: T54, 4H2859-bN
T54 chain: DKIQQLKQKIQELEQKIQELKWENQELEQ

4H2162-bN = biological target: T55, 4H2162-bN
T55 chain: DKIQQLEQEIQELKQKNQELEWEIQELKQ

4H2518-bN = biological target: T56, 4H2518-bN
T56 chain: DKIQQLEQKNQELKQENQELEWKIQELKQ

4H2717-bN = biological target: T57, 4H2717-bN
T57 chain: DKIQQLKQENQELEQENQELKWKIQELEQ

4H2444-bA = biological target: T58, 4H2444-bA
T58 chain: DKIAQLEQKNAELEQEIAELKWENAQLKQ

P8A = biological target: T59, P8A
T59 chain: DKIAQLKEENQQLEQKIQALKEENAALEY

P6A = biological target: T60, P6A
T60 chain: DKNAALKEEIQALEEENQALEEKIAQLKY

P7A = biological target: T61, P7A
T61 chain: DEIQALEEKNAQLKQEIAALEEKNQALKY

P1A = biological target: T62, P1A
T62 chain: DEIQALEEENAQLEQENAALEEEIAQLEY

P4A = biological target: T63, P4A
T63 chain: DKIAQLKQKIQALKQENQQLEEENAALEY

P9A = biological target: T64, P9A
T64 chain: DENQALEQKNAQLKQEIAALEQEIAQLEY

P5A = biological target: T65, P5A
T65 chain: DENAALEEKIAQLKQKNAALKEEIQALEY

P2A = biological target: T66, P2A
T66 chain: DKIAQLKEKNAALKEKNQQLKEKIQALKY

P3A = biological target: T67, P3A
T67 chain: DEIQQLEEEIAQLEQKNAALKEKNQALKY

- interaction score (O14-bA): -0.951
- interaction score (O7-bA): -0.686
- interaction score (O2-bA): -0.637
- interaction score (O16-bA): -0.988
- interaction score (O6-bA): -0.9
- interaction score (O15-bA): -0.971
- interaction score (O9-bA): -0.659
- interaction score (O5-bA): -0.78
- interaction score (O12-bA): 2.25
- interaction score (O8-bA): -1.31
- interaction score (O13-bA): -1.12
- interaction score (O11-bA): -0.526
- interaction score (O4-bA): 2.16
- interaction score (O3-bA): -0.525
B1: O11-bA (peptide)
chain: DKIAQLKQEIAELEQENAELEWENAQLEQ

- interaction score (O14-bA): -0.435
- interaction score (O7-bA): -0.372
- interaction score (O2-bA): -0.795
- interaction score (O16-bA): -0.73
- interaction score (O6-bA): 0.643
- interaction score (O15-bA): -0.225
- interaction score (O9-bA): 1.04
- interaction score (O5-bA): -0.511
- interaction score (O12-bA): -1.51
- interaction score (O8-bA): 0.0711
- interaction score (O13-bA): -0.478
- interaction score (O4-bA): 1.27
- interaction score (O3-bA): 1.31
B2: O12-bA (peptide)
chain: DEIAQLEQKIAELKQKNAELKWKNAQLKQ

Continued, binder first:

B3: 4H2143-bN (peptide)
chain: DKIQQLEQEIQELKQENQELKWKNQELEQ
- interaction score (4H492-bN): -0.438
- interaction score (4H730-bN): 0.137
- interaction score (4H2143-bN): 0.45
- interaction score (4H319-bN): -1.38
- interaction score (4H235-bN): 0.188
- interaction score (4H3364-bN): -0.973
- interaction score (4H2253-bN): 0.598
- interaction score (4H3041-bN): 0.217
- interaction score (4H349-bN): 0.196
- interaction score (O11-bN): -1.88
- interaction score (4H56-bN): -0.695
- interaction score (4H348-bN): 0.129
- interaction score (4H2915-bN): 0.491
- interaction score (4H754-bA): 0.173
- interaction score (4H3297-bN): -0.664
- interaction score (4H932-bN): 0.299
- interaction score (4H2692-bN): -0.295
- interaction score (4H2931-bN): -0.53
- interaction score (4H477-bN): -0.266
- interaction score (4H3354-bN): -2.78
- interaction score (4H949-bN): -0.46
- interaction score (4H2444-bN): -1.29
- interaction score (4H2503-bN): -0.374
- interaction score (4H2233-bN): -1.37
- interaction score (4H570-bN): -0.424
- interaction score (4H2473-bN): -0.596
- interaction score (4H2588-bN): -0.413
- interaction score (4H741-bN): -0.465
- interaction score (4H40-bN): 0.442
- interaction score (4H2839-bN): -0.0339
- interaction score (4H2438-bN): 0.267
- interaction score (4H3277-bN): -0.382
- interaction score (4H2223-bN): -0.138
- interaction score (4H2585-bN): -1.01
- interaction score (4H264-bN): -0.0625
- interaction score (4H3381-bN): -0.161
- interaction score (4H2760-bN): -0.843
- interaction score (4H796-bN): -0.462
- interaction score (4H3057-bN): -0.303
- interaction score (4H2859-bN): -0.319
- interaction score (4H2162-bN): 0.354
- interaction score (4H2518-bN): -0.0822
- interaction score (4H2717-bN): 0.125

B4: 4H2162-bN (peptide)
chain: DKIQQLEQEIQELKQKNQELEWEIQELKQ
- interaction score (4H730-bN): -0.649
- interaction score (4H235-bN): -0.0614
- interaction score (4H3364-bN): -0.416
- interaction score (4H2253-bN): -0.654
- interaction score (4H3041-bN): 1.18
- interaction score (4H349-bN): 0.391
- interaction score (4H56-bN): -0.33
- interaction score (4H3297-bN): -0.173
- interaction score (4H932-bN): -0.305
- interaction score (4H2931-bN): -1.12
- interaction score (4H949-bN): -1.05
- interaction score (4H2444-bN): -1.27
- interaction score (4H2233-bN): -0.887
- interaction score (4H2585-bN): 0.615
- interaction score (4H264-bN): -0.799
- interaction score (4H3381-bN): -0.622
- interaction score (4H2760-bN): -0.495
- interaction score (4H2444-bA): -0.359
- interaction score (4H796-bN): -0.418
- interaction score (4H2859-bN): 0.571
- interaction score (4H2162-bN): 1.61
- interaction score (4H2518-bN): 0.614

B5: P1A (peptide)
chain: DEIQALEEENAQLEQENAALEEEIAQLEY
- interaction score (P8A): -1
- interaction score (P6A): -1.54
- interaction score (P7A): -1.31
- interaction score (P1A): -1.11
- interaction score (P4A): -0.87
- interaction score (P9A): -1.68
- interaction score (P5A): -2.1
- interaction score (P2A): 2.6
- interaction score (P3A): -1.69
